Data from PMC4670726, “Systematic discovery of linear binding motifs targeting an ancient protein interaction surface on MAP kinases” (Molecular Systems Biology, 2015).
Ends that are not written are not given here.

Experiments:
[1] = biological target: T1, p38α (as used in the fluorescence polarization titrations) (human, UniProt Q16539 1-360); experiment: fluorescence polarisation; competition: 50 nM N-terminally labeled reporter peptide mixed with MAPK at ~60–80% complex formation, increasing amounts of unlabeled synthetic test peptide added; 384-well plates, triplicates; Ki from a competition binding equation; details: both partners purified
T1 construct: p38α; the FP methods say only 'MAPKs'
T1 sequence (Q16539 whole entry): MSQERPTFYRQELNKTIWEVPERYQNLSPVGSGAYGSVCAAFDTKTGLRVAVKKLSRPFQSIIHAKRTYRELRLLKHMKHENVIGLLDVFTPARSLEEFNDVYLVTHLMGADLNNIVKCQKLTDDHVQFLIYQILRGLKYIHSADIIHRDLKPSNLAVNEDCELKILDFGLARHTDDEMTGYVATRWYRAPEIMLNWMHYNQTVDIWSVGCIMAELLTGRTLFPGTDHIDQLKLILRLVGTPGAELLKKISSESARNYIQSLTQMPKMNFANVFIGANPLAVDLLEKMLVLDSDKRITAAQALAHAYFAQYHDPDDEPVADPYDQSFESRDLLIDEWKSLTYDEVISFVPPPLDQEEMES

[2] = biological target: T2, ERK2 (as used in the fluorescence polarization titrations) (human, UniProt P28482 1-360); experiment: as above; details: both partners purified
T2 construct: ERK2; the FP methods say only 'MAPKs'
T2 sequence (P28482 whole entry): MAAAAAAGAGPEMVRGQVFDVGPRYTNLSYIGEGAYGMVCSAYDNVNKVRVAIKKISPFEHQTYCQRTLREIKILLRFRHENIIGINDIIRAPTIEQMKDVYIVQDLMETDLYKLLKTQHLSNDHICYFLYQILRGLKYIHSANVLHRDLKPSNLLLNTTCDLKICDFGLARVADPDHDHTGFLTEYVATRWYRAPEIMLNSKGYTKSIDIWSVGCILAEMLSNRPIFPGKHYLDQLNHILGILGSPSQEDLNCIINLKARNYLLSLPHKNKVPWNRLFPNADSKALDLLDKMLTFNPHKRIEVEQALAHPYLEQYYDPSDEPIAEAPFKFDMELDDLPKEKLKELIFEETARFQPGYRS

binding result [1] | binding result [2] | Binder
binds | – | IKIKKIEDASNPLLLKRRKK (also: N-terminally labeled with carboxyfluorescein or carboxytetramethylrhodamine, docking peptide of MK2; source: synthetic peptide) [pepMK2, labeled reporter peptide]
– | binds | PQLKPIESSILAQRRVRKLPSTTL (also: N-terminal label: carboxyfluorescein or carboxytetramethylrhodamine, docking peptide of RSK1; source: synthetic peptide) [pepRSK1, labeled reporter peptide]
binds | – | SRKPDLRVVIPPS (also: N-terminally labeled with carboxyfluorescein or carboxytetramethylrhodamine, docking peptide of MEF2A; source: synthetic peptide) [pepMEF2A, labeled reporter peptide]
